# Source: the RNAGym collection of RNA variant scans (doi:10.1073/pnas.2313332121)
# This sample holds only a part of the variants without activity.
# B1: TPR 5TU (parent)
# chain: GGAUCUUCUCGAUCUAACAAAAAAGACAAAUCUGCCACAAAGCUUGAGAGCAUCUUCGGAUGCAGAGGCGGCAGCCUUCGGUGGCGCGAUAGCGCCAACGUUCUCAACUAUGACACGCAAAACGCGUGCUCCGUUGAAUGGAGUUUAUCAUG
# Variants of: B1
# Assay: polymerase ribozyme fitness, log enrichment relative to wild type (log ratio); higher = more active; in vitro selection for triplet polymerase activity
# Summary of the method: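 Only genotypes with ≥10 input reads and ≥1 read per output were kept after Illumina sequencing of input and output libraries. These libraries were PCR-built, transcribed mutants of each subunit of a heterodimeric triplet polymerase ribozyme, each put through one triplicate in vitro selection round with frozen incubation at −7 °C, gel excision of extended constructs, streptavidin-bead capture and RT-PCR. Fitness is a logarithmic ratio of genotype enrichment to wild-type enrichment, from inverse-variance-weighted replicate averages, with the logarithm in base 2.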
row,Variant,polymerase ribozyme fitness (log ratio)
1,A22G C32U C103G A147G G152A,≤ -4.2
2,A23G C27G A40G U61A C131G G143U,≤ -4.2
3,A24G A40U C43U A49C G84A G100U G124A C125G U145G,≤ -4.2
4,A22C G25A C93U C118A,≤ -4.2
5,A22U G84A,-0.556
6,A23U G58C G68A C79G A150G,≤ -4.2
7,A23G A41C U44C A49C G58C A64C C85U A138G,≤ -4.2
8,A22G C32G U33G G94A A110C C116G,-4.15
9,A22G G48A G62C G94A C116U,≤ -4.2
10,A22U G59A U101A,0.375
11,A24G G88U,≤ -4.2
12,A22U U82C C93G C103G U151G,≤ -4.2
13,A23G C96U,-2.56
14,A22U U53A G92A G141A,-3.56
15,A21U U55A U56A G71U,-1.72
16,A24G A60G G68A G86C G124C,≤ -4.2
17,A21U U45C C85A,-3.36
18,A23C C131G U134G,≤ -4.2
19,A23C C79U C96U C99A,≤ -4.2
20,A22U A28U U104G,≤ -4.2
21,A23G G46A C87U C132G,≤ -4.2
22,A23C A41C C85A U90G G124U U135G,≤ -4.2
23,A22C C87U C123G,-0.845
24,A22U G152A,-2.39

row,Variant,polymerase ribozyme fitness (log ratio)
1,A22U A89U C105U,0.731
2,A22C G83U A115G,-1.96
3,A22G A47C U55A U61A G92C A142U,≤ -4.2
4,A22U C105U G136C,-2.55
5,A22U C93U,-1.47
6,A22G G59C G62C C63U C87G A89U A120C G143C,-3.94
7,A23G G58A C87U A121C,-3.82
8,A22U C54U A107U U134C U145C,-4.02
9,A23C C72U C87A C96U C105U,≤ -4.2
10,A23U G34A U53G G74A U139A,≤ -4.2
11,A23U C27U U33G G42U G86U U101A G152A,≤ -4.2
12,A23U A106G A138U,≤ -4.2
13,A23G C54A,-3.28
14,A23G U127G,≤ -4.2
15,A22U A24U G141U,1.41
16,A22U G48C G50U A120U U145C,-2.9
17,A24C C69A C105A C114U A122U,≤ -4.2
18,A22G U109G,-0.357
19,A22G G83C,-0.878
20,A22G U82A G83A C105U,0.185
21,A24G A26U C38U A47U C85U C116U C125A,≤ -4.2
22,A22U U53C G92U,-0.0274
23,A22C A24U C54A U77A G84U,≤ -4.2
24,A22U C35A A41C U53G C87U A97C C108U U151A,≤ -4.2

row,Variant,polymerase ribozyme fitness (log ratio)
1,A22C G65A U104G A107C U127G,≤ -4.2
2,A24C U55A A60G A97U,≤ -4.2
3,A23U C93G,≤ -4.2
4,A22U C35A G65A C69A C116U G117C,-3.86
5,A22U A28U A37U G42C C54A C103A,≤ -4.2
6,A23C A24U U61C G83A G112U U127G,≤ -4.2
7,A22G U44A U53C G67C C99G G126A U134C,≤ -4.2
8,A23G C103A,-3.88
9,A23C U56A G81A U90A C95G G143U,≤ -4.2
10,A24C U31C G68U U78C C85U,≤ -4.2
11,A23U U56A C93A U101G U127A A137U U139A C149A,≤ -4.2
12,A22U C87G U104A C105A,≤ -4.2
13,A23C A30C A52C C95U U144A,≤ -4.2
14,A22U A47U C51U C95A C99U,-1.72
15,A22U G70U C87A A119U,≤ -4.2
16,A23G C27U C93G C103G A150G,≤ -4.2
17,A23C A40U G48U G94C C99G U144A,≤ -4.2
18,A22C A89G C95A C103A G124U,-4
19,A22U G25U C35U C76G G126U U135A,≤ -4.2
20,A23G A41G U55A U90C C96G C99A,≤ -4.2
21,A23G G94U U148C,≤ -4.2
22,A21U G58C C76G C87U C105A A119U,≤ -4.2
23,A22G C87U,-0.258
24,A24G A30G A52C U53G G59A C87U G92U G128A U139A,≤ -4.2

row,Variant,polymerase ribozyme fitness (log ratio)
1,A24G G83C,-3.62
2,A24C A52G G84C G88U C95U C96U U102G,≤ -4.2
3,A24G G92C,-2.81
4,A23U G42U G58C G65U C75G G141U,≤ -4.2
5,A22U C38U U53A G74C U90C A120U,≤ -4.2
6,A24C U56C A64C C96U,≤ -4.2
7,A23C C118U U144A,≤ -4.2
8,A22C C51U U56A G92U G100C U101G C103G G143U G152A,≤ -4.2
9,A22C A30G A60G G68A C85A A91C G126A,≤ -4.2
10,A22G U55A U61A G94U,-3.37
11,A23C G50U C76U C79A C85U C99G,≤ -4.2
12,A23U A73U G88C,≤ -4.2
13,A22U G124A,0.0485
14,A23G C76G C87U A119G G140U,≤ -4.2
15,A23U A30C C35A A106C,≤ -4.2
16,A23C G25A C32A C63U C87A,≤ -4.2
17,A22C A40C C63G,0.514
18,A24G U55A,-3.22
19,A24C C43A U45A,≤ -4.2
20,A24C C79U,≤ -4.2
21,A22U C32U A47U G83A C125U,≤ -4.2
22,A24C G34C C35A A122G U134A G143C,-4.11
23,A24C C35U C87G A98U C103U C125G,≤ -4.2
24,A22U A28U A47C C72G G84U C149A,≤ -4.2

row,Variant,polymerase ribozyme fitness (log ratio)
1,A23G A29U G59A G94A,≤ -4.2
2,A22G C95U A119G,0.832
3,A23U A24U A73G G88A A91C C114U,≤ -4.2
4,A24G C27G A30U G48C G92U,≤ -4.2
5,A22U C43A G86A U90A,≤ -4.2
6,A22U A30C C32A A60C C85G G86A A89U A110G U135G U144G,≤ -4.2
7,A22U U55A C57A C85G,-1.44
8,A22C G34A A64G U144G U151A,-4.04
9,A23U U56A,-3.49
10,A22C G46A C76U,≤ -4.2
11,A22G C35G U44C U77G C87A C93G U111G,≤ -4.2
12,A23U C118U,-3.62
13,A22U U44A U45A A122G G140C G143U U146C,≤ -4.2
14,A21U G50A C63U C75U A97U,-1.25
15,A22U U55A U56A A97U,-0.631
16,A23G A47C C103G A122G U145A,≤ -4.2
17,A23C A37C U53A A64C U90C C96G U101G,≤ -4.2
18,A24C U56A G86A A150G,≤ -4.2
19,A22U A23U G70U C85U A89C A120G U144A,≤ -4.2
20,A23U C35A A60G G84C G86A C96A G140U,≤ -4.2
21,A22U C75G C76U G94C A110U A147U,≤ -4.2
22,A22G C38G C96U A110U U111A,≤ -4.2
23,A22C A40C G94A A119G,0.789
24,A22U A98G,-0.232

row,Variant,polymerase ribozyme fitness (log ratio)
1,A22C C51U U55G G67A G84C A115U G140C,≤ -4.2
2,A22U C38A G50U U56A C75G C93U U134A,≤ -4.2
3,A22C C95U A138U,≤ -4.2
4,A22G A30U G65C G136A,≤ -4.2
5,A22G C85A G143C,-2.92
6,A22U A37C C96U A142C,-1.63
7,A24G C27U G42C U55G,≤ -4.2
8,A22C G70C,-4
9,A21U G50C C57A A97G,-3.79
10,A23C C35U G65A A66U C76A U78G,≤ -4.2
11,A24C G59U A73G A150U,-3.13
12,A23U G74U A91U,≤ -4.2
13,A23C U55A,-3.85
14,A23U G70U U78A G94A C95U C114U,≤ -4.2
15,A24C G58A G112U A122G,≤ -4.2
16,A23G U56A,-2.39
17,A22U A26G C36A G42U C96G G128U C132G U144G,≤ -4.2
18,A22C A37U G48C C87U G124A U134C,-4.18
19,A22G G86U,-0.647
20,A23C U53C G58U G94C A115U C129U,≤ -4.2
21,A23U G42A C51U G71A G94A U101G,≤ -4.2
22,A24C G48C C118G,≤ -4.2
23,A22C C54A G94A A98U,-1.82
24,A23G C76U C85A,≤ -4.2

row,Variant,polymerase ribozyme fitness (log ratio)
1,A22G A73U C87U,-3.05
2,A23U G48A A113G A120U,≤ -4.2
3,A23C C85A G88A A120U U146G,≤ -4.2
4,A22G U53A A66G C72G U90C U145G,≤ -4.2
5,A22U A52C C99U,-1.89
6,A24C A47C C57U A121U,≤ -4.2
7,A23U C76A,-3.84
8,A22G C85U C114A U139G,-3.14
9,A22U C43A C57G C93U C96U,≤ -4.2
10,A22U A47C U55G G84U C125G,-3.06
11,A24G C87U,-2.3
12,A24G C38U,≤ -4.2
13,A22U G68U G74A U78A G92A C125A G140U U145G,≤ -4.2
14,A22C C76A C85A C93U C132A A142U,≤ -4.2
15,A22U C85U U134G G143C C149A,≤ -4.2
16,A24G C79A C96A G141A,≤ -4.2
17,A22G A29U G88A G117U G140A,≤ -4.2
18,A23G A37G C95A C118G G140A,≤ -4.2
19,A23G C85A,-2.98
20,A24C A29G G46U C85U C129G C131A G141C,≤ -4.2
21,A22C C57U,-0.765
22,A24G C43U A73G G83U U101G C105G U127C G140C,≤ -4.2
23,A24C C87A A106G U135C,≤ -4.2
